Earlier results in paper PMC4497409.
Values joined by “and” are separate entries in the source; they are usually repeats but may differ in a detail not shown here. Equal values may be shown once.

How the values were obtained:
[1] = molecular target: Frizzled4 CRD (Mus musculus) (UniProt Q61088); test: ELISA
[2] = molecular target: Frizzled4 CRD (Homo sapiens) (UniProt Q9ULV1); test: AlphaScreen
[3] = molecular target: Lrp6 P1E1P2E2 (Homo sapiens) (UniProt O75581); test: AlphaScreen
Sequence of Lrp6 P1E1P2E2 (Homo sapiens) (O75581 20-630): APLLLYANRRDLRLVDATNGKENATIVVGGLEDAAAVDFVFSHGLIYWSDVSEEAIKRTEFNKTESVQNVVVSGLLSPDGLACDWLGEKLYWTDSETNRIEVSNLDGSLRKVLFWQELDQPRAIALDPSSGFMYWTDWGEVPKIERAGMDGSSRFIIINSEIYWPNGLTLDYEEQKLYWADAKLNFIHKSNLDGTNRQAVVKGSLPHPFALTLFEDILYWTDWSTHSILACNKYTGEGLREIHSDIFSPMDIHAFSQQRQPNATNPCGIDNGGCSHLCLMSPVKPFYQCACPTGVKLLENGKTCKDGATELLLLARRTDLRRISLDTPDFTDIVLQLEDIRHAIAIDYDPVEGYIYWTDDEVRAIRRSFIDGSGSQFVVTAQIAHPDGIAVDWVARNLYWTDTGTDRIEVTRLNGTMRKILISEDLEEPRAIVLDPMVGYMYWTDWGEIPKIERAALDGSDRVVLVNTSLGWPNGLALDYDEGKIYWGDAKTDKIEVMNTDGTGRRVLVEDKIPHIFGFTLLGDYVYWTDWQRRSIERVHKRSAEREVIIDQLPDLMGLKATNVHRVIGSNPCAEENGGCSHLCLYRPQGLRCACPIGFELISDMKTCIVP

Sequence of Frizzled4 CRD (Homo sapiens) (Q9ULV1 40-161): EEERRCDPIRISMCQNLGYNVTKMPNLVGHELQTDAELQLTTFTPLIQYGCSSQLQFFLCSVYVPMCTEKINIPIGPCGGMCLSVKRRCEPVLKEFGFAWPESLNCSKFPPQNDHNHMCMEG
Sequence of Frizzled4 CRD (Mus musculus) (Q61088 40-161): as the sequence (Q9ULV1 40-161) above, with S12A, K94R, E102D, S103T counted along it
Sequence of Norrin (P48744 25-131): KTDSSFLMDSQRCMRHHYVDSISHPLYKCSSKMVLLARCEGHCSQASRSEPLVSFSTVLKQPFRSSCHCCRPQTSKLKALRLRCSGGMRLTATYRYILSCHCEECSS

| Kd [1] [nM] | Kd [2] | Kd [3] [nM] | Substance |
| --- | --- | --- | --- |
| 3.5 |  |  | Norrin (from UniProt P48744) |
|  | 11 nM and 5 nM | 450 | Norrin (from UniProt Q00604) |
